Measurements as given in patent US20060160076A1.

Target: CX3CR1 (endogenous, on 3T3-L1 adipocytes) (mouse) (UniProt Q9Z0D9)
Assay: cell-based or functional assay

UniProt Q9Z0D9, sequence (Q9Z0D9 whole entry): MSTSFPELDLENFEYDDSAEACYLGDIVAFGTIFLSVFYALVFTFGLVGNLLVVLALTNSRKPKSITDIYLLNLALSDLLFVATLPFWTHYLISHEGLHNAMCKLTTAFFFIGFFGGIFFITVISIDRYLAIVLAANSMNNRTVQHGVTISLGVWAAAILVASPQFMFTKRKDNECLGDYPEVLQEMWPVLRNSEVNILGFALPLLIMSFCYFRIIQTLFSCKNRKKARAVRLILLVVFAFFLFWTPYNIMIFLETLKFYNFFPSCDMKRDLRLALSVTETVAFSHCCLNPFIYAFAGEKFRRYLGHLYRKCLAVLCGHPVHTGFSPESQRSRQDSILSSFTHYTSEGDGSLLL

fold change in glucose uptake over vehicle pretreatment alone; +1 nM FRA, +0.1 nM INS: 1.6 fold | fold change in glucose uptake over vehicle pretreatment alone; +1 nM FRA, +1 nM INS: 1.6 fold | fold change in glucose uptake over vehicle pretreatment alone; +1 nM FRA, +10 nM INS: 0.9 fold | fold change in glucose uptake over vehicle pretreatment alone; +1 nM FRA, basal: 1.4 fold | fold change in glucose uptake over vehicle pretreatment alone; +10 nM FRA, +0.1 nM INS: 1.9 fold | fold change in glucose uptake over vehicle pretreatment alone; +10 nM FRA, +1 nM INS: 1.8 fold | fold change in glucose uptake over vehicle pretreatment alone; +10 nM FRA, +10 nM INS: 0.9 fold | fold change in glucose uptake over vehicle pretreatment alone; +10 nM FRA, basal: 1.3 fold | fold change in glucose uptake over vehicle pretreatment alone; +100 nM FRA, +0.1 nM INS: 2 fold | fold change in glucose uptake over vehicle pretreatment alone; +100 nM FRA, +1 nM INS: 1.3 fold | fold change in glucose uptake over vehicle pretreatment alone; +100 nM FRA, +10 nM INS: 1.1 fold | fold change in glucose uptake over vehicle pretreatment alone; +100 nM FRA, basal: 1.3 fold | mean 2-DOG uptake value; 1 nM FRA+0.1 nM INS: 1090 | mean 2-DOG uptake value; 1 nM FRA+10 nM INS: 3660 | mean 2-DOG uptake value; 1 nM FRA+Basal: 544 | mean 2-DOG uptake value; 1 nM FRA+nM INS (so in the source): 3160 | mean 2-DOG uptake value; 10 nM FRA+0.1 nM INS: 1280 | mean 2-DOG uptake value; 10 nM FRA+1 nM INS: 3540 | mean 2-DOG uptake value; 10 nM FRA+10 nM INS: 3750 | mean 2-DOG uptake value; 10 nM FRA+Basal: 521 | mean 2-DOG uptake value; 100 nM FRA+0.1 nM INS: 1350 | mean 2-DOG uptake value; 100 nM FRA+1 nM INS: 2730 | mean 2-DOG uptake value; 100 nM FRA+10 nM INS: 4350 | mean 2-DOG uptake value; 100 nM FRA+Basal: 515
Substance: recombinant soluble fractalkine (ligand)
